Four molecules from patent US20160131656A1 (EXTERNAUTICS S P A, published 2016) can be followed below.

First the molecules themselves.
B1: FAT1 25 mer Peptide 1 (peptide)
peptide: REPLYHVIATDKDEGPNAEISYSIE
notes: Made by chemical synthesis
B2: FAT1 25 mer Peptide 3 (peptide)
peptide: IQVEATDKDLGPNGHVTYSIVTDTD
notes: Made by chemical synthesis
B3: FAT1 25 mer Peptide 2 (peptide)
peptide: YHVIATDKDEGPNAEISYSIEDGNE
notes: Made by chemical synthesis
B4: anti-FAT1 monoclonal antibody mAb91.3 (antibody, V domains shown)
VH: VQLQQSGSELVRPGASVKLSCKASGYTFTRSWMHWIKQRPGQGLEWIGNIYPGSGGTNYDEKFKSKATLTVDTSSSTAYMQLSSLTSEDSAIYYCTRSGGQRFDYWGQGTTLTVSS
VL: IVMTQSPAIMSAFSGEKVTMTCSASSSVSSMHWYQQKSSTSPKFWIYDTSKLASGVPGRFSGSGSGNSYSLTISSMEAEDVATYYCFQGSGYPFTFGGGTKLEIKR
notes: Mouse hybridoma antibody, subclass IgG1k; also called anti-FAT1 mAb91.3; the anti-FAT1 monoclonal antibody

Experiment [1] has as its target B4. Nature of the experiment: FACS competition on HCT-15 cells: mAb91.3 incubated with rising peptide concentration; blocked partner is FAT1 on the cell surface. The protocol: For Flow Cytometry analysis, cells (2×10⁴ per well) were pelleted in 96 U-bottom microplates by centrifugation at 200× g for 5 min at 4° C. and incubated for 1 hour at 4° C. with the appropriate dilutions of anti-FAT1-monoclonal antibody. The cells were washed twice in PBS-5% FCS and incubated for 20 min with the appropriate dilution of R-Phycoerythrin (PE)-conjugated secondary antibodies (Jackson Immuno Research, PA, USA) at 4° C. After washing, cells were analysed by a FACS Canto II flow cytometer (Becton Dickinson). Data were analyzed with FlowJo 8.3.3 program.

In experiment [2] the target is T1, FAT1 recombinant cadherin Domain 8 (amino acid 823 to amino acid 927) (human, UniProt Q14517 826-923, limits assumed).
T1 construct: Recombinant form purified from E. coli, used in ELISA and SPR; Any tag is not described; A His6-V5 tagged version was also expressed in transfected HeLa and HEK-293T cells for Western blot; also called FAT Domain 8
T1 sequence: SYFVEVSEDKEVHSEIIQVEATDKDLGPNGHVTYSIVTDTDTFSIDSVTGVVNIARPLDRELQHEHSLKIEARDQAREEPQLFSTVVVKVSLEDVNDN
Nature of the experiment: SPR, Biacore T100, 25 C, FAT1 domain amine-coupled to CM5 chip, mAb91.3 injected, 1:1 Langmuir model. The protocol: (§1) The kinetics of association and dissociation and the Dissociation constants of the anti-FAT1 mAb91.3 were determined using Surface Plasmon Resonance Analysis. Experiments were performed at 25° C. with a BIACORE T100 instrument (Biacore A B, Uppsala, Sweden). The recombinant FAT1 proteins were immobilised on a carboxymethylated dextran-coated (CM5) sensor chip by amine coupling. Briefly, a mixture of 0.2 M 1-ethyl-3-[…]-carbodiimide (EDC) and 0.05 M N-hydroxysuccinimide (NHS) was used for sensor chip surface activation. Proteins pre-concentrated in 0.01 M sodium acetate pH 3.5 were injected at concentration ranging from 2.5 and 5 μg/ml for 10 min and then 1 M ethanolamine pH 8.5 was used to block any remaining activated groups. mAb91.3 was diluted in HBS-EP+buffer at different concentrations from 0.625 μg/ml to 5 μg/ml and injected for 120 s at a flow rate of […] on flow cell 2 and 3. HBS-EP+ buffer was run as control.
In general terms: SPR reads the build-up and loss of mass on a sensor chip optically.

The target in experiment [3] is T2, FAT1 recombinant cadherin Domain 12 (amino acid 1246 to 1352) (human, UniProt Q14517 1250-1344, limits assumed).
T2 construct: Recombinant form purified from E. coli, used in ELISA, SPR and Western blot; Any tag is not described; also called FAT Domain 12
T2 sequence: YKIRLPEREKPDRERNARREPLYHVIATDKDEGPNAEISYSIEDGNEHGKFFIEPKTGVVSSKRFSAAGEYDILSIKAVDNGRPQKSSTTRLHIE
The description is as above. On the procedure:
as §1

The experiment “FAT1 25 mer Peptide 1” concerns the target B1. Nature of the experiment: ELISA with 25 mer peptides. On the procedure: (§2) For ELISA competition experiments, ELISA plates (Nunc Maxisorp) were coated with 1 μg of the FAT1 recombinant proteins in PBS (pH 7.4) at 4° C. overnight. The plates were washed, treated for 1 h at 37° C. with PBS-1% BSA, and 100 μl aliquots of mAb91.3 at (10 micrograms/ml) in PBS-0.1% Tween were added to the wells in the presence of the 25 mer peptides at concentration ranging from 0.001 to 100 micrograms/ml. After incubation for 2 h at 37° C., plates were again washed and incubated for 1 h at 37° C. with alkaline-phosphatase conjugated goat anti-mouse IgG (Sigma) diluted 1:2500 in PBS-Tween. Thereafter 100 μl of PNPP substrate (Sigma) were added to the samples and incubated for 30 min at room temperature and optical densities were read at 405 nm.
For orientation: In an ELISA, binding on a coated surface is turned into a signal by an enzyme label.

In the experiment “FAT1 25 mer Peptide 3” the target is B2. Nature of the experiment: ELISA with 25 mer peptides. On the procedure: as §2
The experiment “FAT1 25 mer Peptide 2” has as its target B3. Nature of the experiment: ELISA with 25 mer peptides. On the procedure: as §2

For the molecule B1, the “IC50 (read off the curve)” value in experiment [1] is about 0.5 mg/L.

On to B2, for which the binding result in experiment [1] is listed as “binds”.

Regarding B3, the binding result in experiment [1] is on record as “binds”.

In general, Kd refers to the equilibrium constant for the complex coming apart. Broadly, the koff is the rate constant with which the complex falls apart. A word on the kon: it is a measure of how fast the partners come together. As to B4, the Kd in experiment [2] amounted to 0.00952 µM; in experiment [3] it was 0.0182 µM. In addition, the koff in experiment [2] is 0.00313 s⁻¹; in experiment [3], 0.00707 s⁻¹. In addition, the kon in experiment [2] turned out to be 329000 M⁻¹ s⁻¹; in experiment [3], 389000 M⁻¹ s⁻¹. Moreover, the binding result with FAT1 25 mer Peptide 1, with FAT1 25 mer Peptide 3 and with FAT1 25 mer Peptide 2 was “binds” in each case.
